[ ]: non-standard residue; d: D form. 2Nal = N[C@@H](Cc1ccc2ccccc2c1)C(=O)O
Molecular target: Recombinant PLA2GIB enzyme (sPLA2GIB produced in E. coli) (UniProt P04054 23-148)
Test: cell-based or functional assay

Sequence of Recombinant PLA2GIB enzyme (sPLA2GIB produced in E. coli) (P04054 23-148 limits assumed): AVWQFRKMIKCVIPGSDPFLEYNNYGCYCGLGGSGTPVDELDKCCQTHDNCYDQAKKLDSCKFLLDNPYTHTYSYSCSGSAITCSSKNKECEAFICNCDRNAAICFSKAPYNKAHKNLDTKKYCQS

- IC50 of inhibition of PLA2GIB activity in the bioassay (inhibition of IL-7-induced nuclear translocation of phospho STAT5 in CD4 T cells, STED microscopy): ~4.9 µM
Binder: cyclo([2Nal]LS[2Nal]R) [Peptide I (cyclic(2-NaphthylAla-Leu-Ser-2-NaphthylAla-Arg))]
